{"source": "paper PMC12597282", "target": "E546N mutant human inducible NOS oxygenase/FMN (oxyFMN) construct (human) (UniProt P35228)", "sequence (P35228 71-723 E546N)": "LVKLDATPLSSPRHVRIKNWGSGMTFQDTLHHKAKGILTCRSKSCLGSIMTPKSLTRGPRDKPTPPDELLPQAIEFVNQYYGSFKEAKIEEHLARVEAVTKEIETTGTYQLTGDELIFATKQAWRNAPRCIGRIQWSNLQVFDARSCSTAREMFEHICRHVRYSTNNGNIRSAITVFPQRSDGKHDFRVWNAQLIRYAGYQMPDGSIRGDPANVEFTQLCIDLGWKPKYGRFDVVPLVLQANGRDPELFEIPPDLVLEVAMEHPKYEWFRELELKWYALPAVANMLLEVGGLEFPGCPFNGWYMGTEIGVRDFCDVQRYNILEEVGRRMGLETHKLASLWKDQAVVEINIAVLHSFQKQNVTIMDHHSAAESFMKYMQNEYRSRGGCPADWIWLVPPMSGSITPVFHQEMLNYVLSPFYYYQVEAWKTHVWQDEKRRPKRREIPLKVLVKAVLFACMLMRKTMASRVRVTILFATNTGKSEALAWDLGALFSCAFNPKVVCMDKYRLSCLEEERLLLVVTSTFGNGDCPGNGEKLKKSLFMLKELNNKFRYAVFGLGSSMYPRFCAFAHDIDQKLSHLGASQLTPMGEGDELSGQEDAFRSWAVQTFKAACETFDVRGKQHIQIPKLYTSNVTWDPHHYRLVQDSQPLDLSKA", "assay": "cross-linking; DSBU 250 uM with 5 uM iNOS oxyFMN (co-purified with CaM), 20 mM HEPES, 100 mM NaCl, 1 mM CaCl2, pH 7.5, 30 min, room temperature; SDS-PAGE, dimeric band digested in gel; LC-MS/MS on timsTOF (DDA-PASEF, then PRM-PASEF for quantitation), lysine-lysine cross-links only"}
{"substance": "calmodulin (from UniProt P0DP23 1-149) (natural protein)", "values": [{"measurement": "log2 fold-change (E546N/wt) of the abundance of cross-link 75–516 CaM-helix (intra) (log2(E546N/wt))", "value": -1.04}]}
